Assay results published in patent US20190284266A1.

Legend:
[1] = target: total tau of Alzheimer's disease brain extract (human) (UniProt P10636); test: immunodepletion of AD brain extract with antibody-coated beads, Tau5 western blot
[2] = target: total tau of Alzheimer's disease brain extract (human) (UniProt P10636); test: immunodepletion of AD brain extract with antibody on Protein G magnetic beads; remaining total tau by Tau5 western blot, normalised to gapdh
[3] = target: hyperphosphorylated (pathological) tau from human Alzheimer's disease brain, phosphorylated at serine 396 (human) (UniProt P10636); test: immunodepletion of AD brain extract with antibody-coated beads, pS396 western blot
[4] = target: tau phosphorylated at Serine 422 in Alzheimer's disease brain extract (human) (UniProt P10636); test: immunodepletion of AD brain extract with antibody-coated beads, P-S422 western blot
[5] = target: hyperphosphorylated human tau P301L (0N4R) of rTg4510 mice, 64 kDa and 70 kDa species (human) (UniProt P10636); test: binding of pathological versus non-pathological tau, brain material (Table 5)
[6] = target: hyperphosphorylated (pathological) tau from human Alzheimer's disease brain, phosphorylated at serine 396 (human) (UniProt P10636); test: as above
[7] = target: tau phosphorylated at Serine 199/202 in Alzheimer's disease brain extract (human) (UniProt P10636); test: immunodepletion of AD brain extract with 5 µg antibody on beads, P-S199/202 western blot
[8] = target: hyperphosphorylated (pathological) tau from human Alzheimer's disease brain, phosphorylated at serine 396 (human) (UniProt P10636); test: MSD fluid phase inhibition: antibody pre-incubated with AD-P3, capture on coated mouse C10-2 (competitor); two-site fit, low affinity part (predominant); two-site fit, low affinity part (predominant)
[9] = target: hyperphosphorylated (pathological) tau from human Alzheimer's disease brain, phosphorylated at serine 396 (human) (UniProt P10636); test: MSD fluid phase inhibition of Ptau antigen capture on C10-2 coated plate (competitor C10-2); lower end of the printed range 10-20 nM
[10] = target: hyperphosphorylated (pathological) tau from human Alzheimer's disease brain, phosphorylated at serine 396 (human) (UniProt P10636); test: immunodepletion of AD brain extract with antibody on Protein G magnetic beads; remaining P-S396 tau by western blot, normalised to gapdh
[11] = target: tau phosphorylated at Serine 199/202 in Alzheimer's disease brain extract (human) (UniProt P10636); test: immunodepletion of AD brain extract with antibody-coated beads, P-S199/202 western blot
[12] = target: hyperphosphorylated (pathological) tau from human Alzheimer's disease brain, phosphorylated at serine 396 (human) (UniProt P10636); test: MSD fluid phase inhibition of Ptau antigen capture on C10-2 coated plate (competitor C10-2); upper end of the printed range 10-20 nM
[13] = target: hyperphosphorylated human tau P301L (0N4R) of rTg4510 mice, 64 kDa and 70 kDa species (human) (UniProt P10636); test: cell-based or functional assay
[14] = target: hyperphosphorylated (pathological) tau from human Alzheimer's disease brain, phosphorylated at serine 396 (human) (UniProt P10636); test: MSD fluid phase inhibition: antibody pre-incubated with AD-P3, capture on coated mouse C10-2 (competitor); two-site fit, high affinity part; two-site fit, high affinity part (less than 25% of total binding)
[15] = target: hyperphosphorylated (pathological) tau from human Alzheimer's disease brain, phosphorylated at serine 396 (human) (UniProt P10636); test: immunodepletion of AD brain extract, pS396 western blot, 75 ng antibody
[16] = target: hyperphosphorylated (pathological) tau from human Alzheimer's disease brain, phosphorylated at serine 396 (human) (UniProt P10636); test: MSD fluid phase inhibition of AD-P3 capture, two-site fit
[17] = target: hyperphosphorylated (pathological) tau from human Alzheimer's disease brain, phosphorylated at serine 396 (human) (UniProt P10636); test: MSD fluid phase inhibition of Ptau antigen capture on C10-2 coated plate (competitor C10-2)
[18] = target: Antibody N32S; test: MSD peptide inhibition: 1 ng/ml antibody pre-incubated with graded Ptau 386-408 (pS396), then wells coated with Ptau 386-408 (pS396/pS404) (competitor)
[19] = target: Antibody N32S, A101T; test: as above

What does the source list for 2.10.3 antibody?
percent of total tau removed [1]: < 24%; EC50 (read off the curve) [2]: 0.3 µg; amount of antibody for half of the max effect [3]: 0.63 µg; max effect, percent of pS396 tau removed [3]: 60%; percent of pS396 tau removed [3]: 55%; amount of antibody required to remove 50% of the pS422 tau [4]: 0.42 µg; percent of pS422 tau removed [4]: > 90%; TG/wt (ratio of binding to transgenic over wild type mouse brain tau) [5]: 2 fold; AD/ctrl (ratio of binding to AD brain tau over control brain tau) [6]: 5 fold; max percent reduction of pS199/202 tau [7]: 52%

Which TG/wt (ratio of binding to transgenic over wild type mouse brain tau) [5] does the source give for “Anti-Tau Therapeutic Antibody NI-105-4E4” here?
The TG/wt (ratio of binding to transgenic over wild type mouse brain tau) was 1 fold.

Antibody C10-2 (humanized C10-2) was tested. Which IC50 [8] did it give?
The IC50 was 630 nM.

And the IC50 [9]?
Its IC50 is greater than 10 nM.

And the EC50 (read off the curve) [10]?
Its EC50 (read off the curve) is 0.2 µg.

What about the amount of antibody for 50% of the effect [11] of the same substance?
The amount of antibody for 50% of the effect was 0.34 µg.

What about the percent of pS199/202 tau removed [11] of the same substance?
Its percent of pS199/202 tau removed is 69%.

And the amount of antibody for half of the max effect [3]?
Its amount of antibody for half of the max effect is 0.3 µg.

What about the max effect, percent of pS396 tau removed [3] of the same substance?
The max effect, percent of pS396 tau removed was 88%.

What about the IC50 [12] of the same substance?
The IC50 was less than 20 nM.

What about the amount of antibody required to remove 50% of the pS422 tau [4] of the same substance?
Its amount of antibody required to remove 50% of the pS422 tau is 0.27 µg.

What about the percent of pS422 tau removed [4] of the same substance?
The percent of pS422 tau removed was greater than 90%.

And the decrease in aggregated tau in HEK293 cells expressing hTau-P301L seeded with Tg4510 homogenate pre-incubated with antibody (Cisbio tau aggregation assay) [13]?
The decrease in aggregated tau in HEK293 cells expressing hTau-P301L seeded with Tg4510 homogenate pre-incubated with antibody (Cisbio tau aggregation assay) was 40%.

And the reduction of P3 and S1p induced tau seeding in rTg4510 cortical neurons (Cisbio tau aggregation assay) [13]?
Its reduction of P3 and S1p induced tau seeding in rTg4510 cortical neurons (Cisbio tau aggregation assay) is 23%.

And the IC50 [14]?
Its IC50 is 14 nM.

What about the TG/wt (ratio of binding to transgenic over wild type mouse brain tau) [5] of the same substance?
The TG/wt (ratio of binding to transgenic over wild type mouse brain tau) was 118 fold.

And the AD/ctrl (ratio of binding to AD brain tau over control brain tau) [6]?
Its AD/ctrl (ratio of binding to AD brain tau over control brain tau) is greater than 100 fold.

What about the percent decrease in the pS396 signal at 75 ng antibody [15] of the same substance?
Its percent decrease in the pS396 signal at 75 ng antibody is less than 6%.

And the share of high affinity binding in the total binding [16]?
The share of high affinity binding in the total binding was less than 25%.

HJ8.5 (antibody) was tested. Which TG/wt (ratio of binding to transgenic over wild type mouse brain tau) [5] did it give?
The TG/wt (ratio of binding to transgenic over wild type mouse brain tau) was 51 fold.

IPN002 (antibody) was tested. Which TG/wt (ratio of binding to transgenic over wild type mouse brain tau) [5] did it give?
Its TG/wt (ratio of binding to transgenic over wild type mouse brain tau) is 37 fold.

With PHF-13 (antibody) as the substance, how does the IC50 [17] read?
The IC50 was 500 to 1000 nM.

Which IC50 [18] does the source give for Ptau 386-408 (pS396) peptide here?
Its IC50 is 50 nM.

What about the IC50 [19] of the same substance?
Its IC50 is 34 nM.
